Results on 23 molecules are retold here after PMC7345789.

This experiment concerns the target Gab2 (Homo sapiens). Description: flow.

B1: SHP2 N-SH2, Q06124 (protein)
chain: WFHPNITGVEAENLLLTRGVDGSFLARPSKSNPGDFTLSVRRNGAVTHIKVQNTGDYYDLYGGEKFATLAELVQYYMEHHGQLKEKNGDVIELKYPL
As usually defined, the Kd is the concentration at which binding is half-saturated. Consider B1, for which the Kd came out at 30 nM.

B2: SHP2 N-SH2, Q06124 (protein)
chain: WFHPNITGVEAENLLLSRGVDGSFLARPSKSNPGDFTLSVRRNGAVTHIKIQNTGDYYDLYGGEKFATLAELVQYYMEHHGQLKEKNGDVIELKYPL
Turning to B2, the Kd worked out at 100 nM.

B3: SHP2 N-SH2, Q06124 (protein)
chain: WFHPNITGVEAENLLLTRGVDGSFLGRPSKSNPGDFTLSVRRNGAVTHIKIQNTGDYYDLYGGEKFATLAELVQYYMEHHGQLKEKNGDVIELKYPL
As to B3, the Kd was found to be 70 nM.

B4: SHP2 N-SH2, Q06124 (protein)
chain: WFHPNITGVEAENLLLTRGVDGSFLARPSKSNPGDFTLSVRRNGAVTHIKIQNTGDYYDLYGGEKFATLAELVQYYMEHHGQLKEKNGDAIELKYPL
The molecule B4 displayed a Kd of 130 nM.

B5: SHP2 N-SH2, Q06124 (protein)
chain: WFHPNITGAEAENLLLTRGVDGSFLARPSKSNPGDFTLSVRRNGAVTHIKIQNTGDYYDLYGGEKFATLAELVQYYMEHHGQLKEKNGDVIELKYPL
B5 displayed a Kd of 160 nM.

B6: SHP2 N-SH2, Q06124 (protein)
chain: WFHPNITGVEAENLLLTRGVDGSFLARPSKSNPGDFTLSVRRNGAVTHIKIQNTGDYYDLYGGEKFATLAELVQYYMEHHGQAKEKNGDVIELKYPL
Regarding B6, the Kd is 730 nM.

B7: SHP2 N-SH2, Q06124 (protein)
chain: WFHPNITGVEAENLLLTRGADGSFLARPSKSNPGDFTLSVRRNGAVTHIKIQNTGDYYDLYGGEKFATLAELVQYYMEHHGQLKEKNGDVIELKYPL
On to B7, for which the Kd was 100 nM.

B8: SHP2 N-SH2, Q06124 (protein)
chain: WFHPNITGVEAENLLLTRGVDGSFLARPSKSNPGDFTLSVRRNGAVSHIKIQNTGDYYDLYGGEKFATLAELVQYYMEHHGQLKEKNGDVIELKYPL
B8: the Kd was determined as 10 nM.

B9: SHP2 N-SH2, Q06124 (protein)
chain: WFHPNITGVEAENLLLTRGVDGSFLARPSKSNPGDFTLSVRRNGAVTHIKIQNTGDYYDLYGGEKFATLGELVQYYMEHHGQLKEKNGDVIELKYPL
Take B9: the Kd was found to be 110 nM.

B10: SHP2 N-SH2, Q06124 (protein)
chain: WFHPNITGVEAENLLLTRGVDGSFLARPSKSNPGDFTLSVRRNGAVTHIKIQNSGDYYDLYGGEKFATLAELVQYYMEHHGQLKEKNGDVIELKYPL
The molecule B10 had a Kd of 120 nM.

B11: SHP2 N-SH2, Q06124 (protein)
chain: WFHPNITGVEAENLLLTRGVDGSFLARPSKSNPGDFTLSARRNGAVTHIKIQNTGDYYDLYGGEKFATLAELVQYYMEHHGQLKEKNGDVIELKYPL
As to B11, the Kd amounted to 230 nM.

B12: SHP2 N-SH2, Q06124 (protein)
chain: WFHPNITGVEAENLLLTRGVDGSFLARPSKSNPGDFTLSVRRNGAVTHIKIQNTGDYYDLYGGEKFATLAELVQYYMEHHGQLKEKNGDVVELKYPL
The molecule B12 had a Kd of 100 nM.

B13: SHP2 N-SH2, Q06124 (protein)
chain: WFHPNITGVEAENLLLTRGVDGSFLARPSKSNPGDFTLSVRRNGAVTHVKIQNTGDYYDLYGGEKFATLAELVQYYMEHHGQLKEKNGDVIELKYPL
Molecule B13 had a Kd of 150 nM.

B14: SHP2 N-SH2, Q06124 (protein)
chain: WFHPNITGVEAENLLLTRGVDGSFLARPSKSNPGDFTLSVRRNGAVTHIKIQNTGDYYDAYGGEKFATLAELVQYYMEHHGQLKEKNGDVIELKYPL
B14 showed a Kd of 860 nM.

B15: SHP2 N-SH2, Q06124 (protein)
chain: WFHPNITGVEAENLLLTRGVDGSFLARPSKSNPGDFTLSVRRNGAVTHIKIQNTGDYYDLYGGEKFATAAELVQYYMEHHGQLKEKNGDVIELKYPL
B15 yielded a Kd of 210 nM.

B16: SHP2 N-SH2, Q06124 (protein)
chain: WFHPNITGVEAENLLLTRGVDGSFLARPSKSNPGDFTLSVRRNGAVTHIKIQNTGDYYDLYGGEKFGTLAELVQYYMEHHGQLKEKNGDVIELKYPL
As for B16, the dissociation constant (Kd) worked out at 170 nM.

B17: SHP2 N-SH2, Q06124 (protein)
chain: WFHPNITGVEAENLLLTRGVDGSFLARPSKSNPGDFTLSVRRNGAVTHIKIQNTGDYYDLYGGEKFATLAELAQYYMEHHGQLKEKNGDVIELKYPL
In turn, B17 returned a Kd of 190 nM.

B18: SHP2 N-SH2, Q06124 (protein)
chain: WFHPNITGVEAENALLTRGVDGSFLARPSKSNPGDFTLSVRRNGAVTHIKIQNTGDYYDLYGGEKFATLAELVQYYMEHHGQLKEKNGDVIELKYPL
With B18, the Kd came to 170 nM.

B19: SHP2 N-SH2, Q06124 (protein)
chain: WFHPNITGVEAENLLLTRGVDGSFLARPSKSNPGDFSLSVRRNGAVTHIKIQNTGDYYDLYGGEKFATLAELVQYYMEHHGQLKEKNGDVIELKYPL
Molecule B19 had a dissociation constant Kd of 5 nM.

B20: SHP2 N-SH2, Q06124 (protein)
chain: WFHPNISGVEAENLLLTRGVDGSFLARPSKSNPGDFTLSVRRNGAVTHIKIQNTGDYYDLYGGEKFATLAELVQYYMEHHGQLKEKNGDVIELKYPL
B20 gave a Kd of 80 nM.

B21: SHP2 N-SH2, Q06124 (protein)
chain: WFHPNVTGVEAENLLLTRGVDGSFLARPSKSNPGDFTLSVRRNGAVTHIKIQNTGDYYDLYGGEKFATLAELVQYYMEHHGQLKEKNGDVIELKYPL
B21 came in with a dissociation constant Kd of 80 nM.

B22: SHP2 N-SH2, Q06124 (protein)
chain: WFHPNITGVEAENLLLTRGVDGSFLARPSKSNPGDFTLSVRRNGGVTHIKIQNTGDYYDLYGGEKFATLAELVQYYMEHHGQLKEKNGDVIELKYPL
In turn, B22 came in with a Kd of 70 nM.

B23: SHP2 N-SH2, Q06124 (protein)
chain: WFHPNITGVEAENLLLTRGVDGSFLARPSKSNPGDFTLSVRRNGAVTHIKIQNTGDYYDLYGGEKFASLAELVQYYMEHHGQLKEKNGDVIELKYPL
As to B23, the Kd worked out at 110 nM.
